Source: the DeepSol protein solubility set

Assay: soluble on expression in E. coli; label from the status in PepcDB or PDB records

| Sequence | soluble on expression in E. coli |
| --- | --- |
| MGSDKIHHHHHHMSRFVLITPDVSFDGRLRQAVAGGLQGGVQTFFTSLLPADPNDLFAHLDQERPEVLILGPDVPVEEALRLATVMNVRFPELSVILASEPDPDFILQAMRAGIRDILSPDSDAAQIRVLLERASQQFAGRYRVQAAAPMTDTNKGLVIGVFSPKGGVGKTTIATNIAVGLGKIAPMSVVIVDLDLQFGDVASALYLDPQHTVTDAVSPAASQDSLVLKAFLTVHPASIYAVCAPPTPVDADEITPEQVSRLLEQLSEQFQYVVVDTAPGLPEIGLAAMEQCTDVVWVSGMDIPSVRGLRSGLDVLRQLDILPETRHVVLNMADSKLGLTVQDLESTIGAPVDVSIPRSRAVALSTNRGIPVLQESAKDPATKGLNQLVNRFNPAWRATSQRKLHRRVVV | not soluble |
| MGSDKIHHHHHHMISQNRLRVLARELGVRQGYAEKNYVNSWILWGIFTSDFGENLMFKGGTALSKLYFPQSWRFSEDLDFGVEGQYNGSEDDLRDVLDTVTERSGIEFTISEHHESRQQHYPTHYVDMSIQYRAVLDHPNTTSLDVMVDEYVAFDSVHHTHSYEDIPEFELQAYSVEEIFAEKLRAIFQRGAARDYYDLYQLLETESVEIEFDVVLPAFEAKCDHDDLDVDLTTGLPGDQREDIQRQWETSLPDLTGDPPLFDTVWKRLDEAVIDKGTE | not soluble |
| MSLSETLRLGLICAGRMGSFHGQTAALRIPGACLAAIADPTPGQAARLATELGVERFYTDPQQLLDDPDIDGVLIAAPARSHAELVISAARAGKGVFCEKPMAITLDEADRAIAAAADAQVTLQVGFNRRFAKSFRTAHLDVVAGRIGTPQLLRSLTRDPALNNPAASPQWVIFLETLIHDFDSLRYLNPGAEAVEVFVMADALIAPDYKSKGFLDTAVVTIRFDNGAIATAEANFQAVYGYDVRGEVFGSAGMLTMGSVNDSDLVRYLANGIQSDTQRLDTDLLRDAYVAELNHFADCLRTGAKPLASGEDARAALAIARACIESFQLGKAVRVEGARSEGHHHHHH | not soluble |
| MGSDKIHHHHHHMIRFRNFWLPIWNRKMSMKNLYENDLLYRTTGPALRPGGFELTDWAVEHCRFQAGDRILDVGCGRGATVNRLRSHYHLEAYGIDPSATLLTLGQETYPDLPLSKGRGEDIPFTNSCFDGVFVECSLSLMTDPDQALSEIRRVLKVKGKLIIHDVYARNPQGTPDLRELNIGTCIRNALVKEDLEHGLESKGLRTIHWQDHSPLLNRLMMELIMTHGSMSAFWLKSTDCSADPNRVQAALKKAKVGYFQLIAEKEAEKEAEHCPVR | not soluble |
| RSKTVILAKNLPAGTLAAEIQETFSRFGSLGRVLLPEGGITAIVEFLEPLEARKAFRHLAYSKFHHVPLYLEWAPIGVFGAAPQKKDSQHEQPAEKAE | soluble |
| MTEVAKGVATHQRLVALLTQENARYRVVNHEAVGKCEAVSEIRGTALGQGAKALVCKVKGNGVNQHVLAILAADQQADLSQLASHLGGLRASLASPAEVDMLTGCVFGAIPPFSFHPNLKLVADPLLFERFDEIAFNAGLLEKSVIMNTQDYLRIARPELAVFRRFQSSPTA | not soluble |
| GPGSMLRAACCVLSGFPASVSRLFFLSWISLVDTALSFPPPRQTEIAPTRVWAGEGGGGGITALQAVTCPSHSTTCAACAGAGQHPPPPCQPPCRCVRVRVCVVHALLLPPPPSLAILLSCAQTTSTSLPPCFRRQSRARPPPHTHTHIHKHRASCAHHLSLPLLPHMSTAADRQAFLRLMGLTDADVTDPDHQPCAMLHSQTSSSHNVTDKVHRGVKYNSPTASSVAGLSHSASLGGDAIQFSLMNTTNTLRDTSPIVASGPSSSSSRPLFSAPRSVHWEEESIATTSHSSQLPQRAGASGCTAAAISEELKDVGNRSFEAGAFREAVQHYTAAIDALAASTTHSSAEVLLLSALYSNRSAAYLQAAHQMPSVEDAYARALCDADRTVSLRTSWFKGYARQGDAYFKLKRYGAAAEAYEMALQLDPRNKTLMNALSESRQRARHAAREELELRRTMRSTTSTTSSLASSMTGQAGSSTWSEGDPRGGAAASQQAQTLSDVYDGGRRRSGQAQQLWAALKHEVEATVHEVTGDAYRLQQLERFRARCSKGATPTARQAAERKTYVKGVTALASGAPASEPMREASVSGSRFSTATRPDVDVSTAAAAAAAERRHVSSVSPFAATALSSEPHLPPRRRSSASAAFDGPVKNARDVPYEFSSAAASAYQQRLLEEFRKRKATKQ | not soluble |
| MSLNKNEKVKIAYVGIGNRGQQIIEDFARTGMVEVVALCDVDMGAKHTQKVIGMYPKAKQFRDFRQMFDKAGKEFDAVAIATPDHSHFPISMLALASGKHVYVEKPLARTFYEAELLMQAALKRPNLATQVGNQGHSEANYFQFKAWMDAGIIKDVTAVTAHMNNEGHHHHHH | not soluble |
| MTKSQQKVSSIEKLSNQEGIISALAFDQRGALKRMMAEHQSETPTVEQIEQLKVLVSEELTQYASSILLDPEYGLPASDARNNDCGLLLAYEKTGYDVNAKGRLPDCLVEWSAKRLKEQGANAVKFLLYYDVDDTEEINIQKKAYIERIGSECVAEDIPFFLEVLTYDDNIPDNKSAEFAKVKPRKVNEAMKLFSEDCFNVDVLKVEVPVNMNFVEGFSEGEVVYTKEEAAQHFRDQDAATHLPYIYLSAGVSAELFQDTLKFAHDSGAQFNGVLCGRATWSGAVKVYIEEGEQAAREWLRTVGFKNIDDLNTVLKTTATSWKNK | soluble |
| MGILFMSKVGLRGDRRSEGDEVLDPLRQALDSSMQSHNLYQHPQHLAFHVSAPVASTVQQASGLLGPLPHLSSFALQPAHSLLPPLGSHGAGFQENGAKAES | not soluble |
| KEEELVSDEEIGVKISLTGLKGGHSGVDIHLGRANANKLMFRFLKEAVGFYGARLAWVEGGSLRNAIPREAFAVITIQEEEAEAVWELVSDYQDLFRKEFSGIEENIKFEASRIECPRMIIPEEIQDCLINAVEACVNGPQSMLQDFPGTVESSSNLALITAKEGSISVRFLVRSSSESHKMWVASAIESVFSLAGARVEFDASYNGWQPNIQSHILEVMSKVFEEYYGQKPEVQVMHAGLECGIIQGVMPDMDMISVGPELQSPHSPDERIHIESVARTWEVLVKVLERV | not soluble |
| MSGSSEIMSMHDQIVRFSASSSAPEDTTTNSLMAEKEASLVVRLEQELTQAQICNHRLNQQLKVLANSSDKAIKIELANAKVRF | not soluble |
| MQKTVVEIEKASHVLKLLGDKTRLTIMAILKQRECCVCELLEVFDMSQPAISQHLRKLKDAGLVKEDKRGQWIYYSLNSQNELYDFIQDILQHIPDQTENIRKIEETNPTLRCGC | soluble |
| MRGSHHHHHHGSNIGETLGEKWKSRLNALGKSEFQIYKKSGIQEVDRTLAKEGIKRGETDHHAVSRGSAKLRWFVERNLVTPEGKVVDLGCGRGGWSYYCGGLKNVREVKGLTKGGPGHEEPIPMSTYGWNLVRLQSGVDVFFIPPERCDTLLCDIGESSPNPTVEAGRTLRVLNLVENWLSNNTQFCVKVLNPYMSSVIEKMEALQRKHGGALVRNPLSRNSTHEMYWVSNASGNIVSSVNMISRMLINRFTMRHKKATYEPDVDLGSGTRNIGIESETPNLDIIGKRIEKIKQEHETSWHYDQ | soluble |
| SSESIRMVLIGPPGAGKGTQAPNLQERFHAAHLATGDMLRSQIAKGTQLGLEAKKIMDQGGLVSDDIMVNMIKDELTNNPACKNGFILVGFPRTIPQAEKLDQMLKEQGTPLEKAIELKVDDELLVARITGRLIHPASGRSYHKIFNPPKEDMKDDVTGEALVQISDDNADALKKRLAAYHAQTEPIVDFYKKTGIWAGVDASQPPATVWADILNKLGKN | soluble |
| MENILDYNEAELKQWMDKNGEKTFRAKQFFDWIYNGTFDFKDMKNLPQSTRERLEKNFYIGMPSVVKRLNSKKGDTVKFLFRYNDGNIIECVVMKYDYGNSICISTQVGCRMGCSFCASTIGGRVRDLTSGEILAQILKAQKEIGERISNIVLMGSGEPLDNYDNVIKFIRIVNSEKGLNIGQRHITLSTCGIVPRIYDLMKENLQITLAISLHASDDETRKKIMPIANRYSISEIIDCCKKYSDFTGRRITFEYSLVKDVNDDKESAKKLGELLSGMLCHVNLIPVNTVNETSYEKPESSKIKKFCDTLLKYKIESTIRKEMGADINAACGQLRRNYIEESEGK | not soluble |
| MISRTFLLLFFVFSISKCEVQLGCTSPPLPDANGLCPDGYTLITAGGCCPDSDVYIISATTTTTTTTQAPTTTASSGSCQDKVNPKTGVSDCPGMKAYCNNPAYVSVMKDQCPKTCGYCSSSATTAGTCQDKINPSTGRSDCPGMAAYCNNPVYHDVMKDQCPKTCGYC | not soluble |
| ATAAQAERTLPKKYGGRFTVTLIPGDGVGKEITDSVRTIFEAENIPIDWETINIKQTDHKEGVYEAVESLKRNKIGLKGLWHTPADQTGHGSLNVALRKQLDIYANVALFKSLKGVKTRIPDIDLIVIRENTEGEFSGLEHESVPGVVESLKVMTRPKTERIARFAFDFAKKYNRKSVTAVHKANIMKLGDGLFRNIITEIGQKEYPDIDVSSIIVDNASMQAVAKPHQFDVLVTPSMYGTILGNIGAALIGGPGLVAGANFGRDYAVFEPGSRHVGLDIKGQNVANPTAMILSSTLMLNHLGLNEYATRISKAVHETIAEGKHTTRDIGGSSSTTDFTNEIINKLSTMHHHHH | soluble |
| MAVENITMPQLGESVTEGTISKWLVNVGDHVNKYDPLAEVMTDKVNAEVPSSFTGIVKELIAGEGDTLAVGEVVCVIQVEGADEVAATAVEEKTKEEPKAEVNTPEKAPKAKQPTDGKPRFSPAVLKLAGEHNVDLDLVEGTGANGRITRKDILKLVESGNIPQAGAVKKEEAVAAVVEARPEAPKAAPVAQKVEAAKPVSVPTMPGDIEIPVTGVRKAIAANMLRSKHEAPHAWMMIEVDVTNLVSYRNSIKGDFKKREGFNLTFFAFFVKAVAQALKEYPQINSMWAGDKIVQKKDINLSIAVATEDELFVPVIKHADEKTIKGIAREITELAGKVRTKSLKADEMQGGTFTINNTGSFGSVQSMGIINYPQAAILQVESIVKRPVIMENGMFGARDMVNLCLSLDHRVLDGLICGKFLGRVKEILENTSENNTSVY | not soluble |
| GSMQRASRLKRELHMLATEPPPGITCWQDKDQMDDLRAQILGGANTPYEKGVFKLEVIIPERYPFEPPQIRFLTPIYHPNIDSAGRICLDVLKLPPKGAWRPSLNIATVLTSIQLLMSEPNPDDPLMADISSEFKYNKPAFLKNARQWTEKHARQKQKADEEEMLDNLP | soluble |
| MDHENLMKYLEEFRSIRFQPDFQKVDAERNVRYCEITDFPISNISFELLETGVSQQWRNCDQNLFNEYLKTYKNGGYSQFEDLLFKIWGYSEEKERFDLPALKSFYRKMSEIVGEDEVLEKLARLVRITKSACEVLPEKIYRLVGDIESATFSHIQCASLIAWMFFSDTPRLSFIIILQKTTCVAVEKLKFLFTYFDKMSIDPPIGAVSFRKMRITHKQYLENWKLRETNLLPDVQVFDKMSIEETALCTQIDFANKRLGGGVLKGGAVQEEIRFMMCPEMMVAILLNDVTQDLEAISIVGAYVFSSYTGYSNTLKWAKITPKHSAQNNNSFRDQFGRLQTETVAIDAVRNAGTPLECLLNQLTTEKLTREVRKAAIGFLSAGDGFSKIPVVSGWWGCGAFRGNKPLKFLIQVIACGISDRPLQFCTFGDTELAKKCEEMMTLFRNNNVRTGQLFLIINSIGPPLNYSEQYVFDAIRAKINSTKA | not soluble |
| MVNTNLEELRTQVDQLNIDLLELISKRANLVQEIGKIKGTQGSLRFDPLREREMLNTILAANEGPFEDSTVQKLFKEIFKAGLELQEEDHSKALLVSRKNKKEDTIVTVKGLPIGNGEPVFVFGPCSVESYEQVAAVAESIKAKGLKLIRGGAFKPRTSPYDFQGLGLEGLKILKRVSDEYGLGVISEIVTPADIEVALDYVDVIQIGARNMQNFELLKAAGRVDKPILLKRGLSATIEEFIGAAEYIMSQGNGKIILCERGIRTYEKATRNTLDISAVPILKKETHLPVMVDVTHSTGRKDLLLPCAKAALAIEADGVMAEVHPDPAVALSDSAQQMDIPEFEEFWNAILASNLVPHKIK | not soluble |
